Assay results as given in patent US20180194839A1 (Novartis, published 2018).
Residue numbers refer to the chain shown, from its start. Names and notes keep the numbering of the source.

T1: recombinant human IL-17E (R&D Systems Cat#1258-IL/CF) (human, UniProt Q9H293 33-177)
T1 construct: also called huIL-17E; hu IL-17E
T1 sequence (looked up): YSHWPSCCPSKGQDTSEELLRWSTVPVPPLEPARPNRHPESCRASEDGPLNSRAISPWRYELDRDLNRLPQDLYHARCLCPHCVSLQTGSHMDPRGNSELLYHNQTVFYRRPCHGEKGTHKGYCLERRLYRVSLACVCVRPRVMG

T2: recombinant mouse IL-17F (SEQ ID NO: 84) (mouse, UniProt Q7TNI7 29-161)
T2 construct: also called mIL-17F; rmIL-17F
T2 sequence: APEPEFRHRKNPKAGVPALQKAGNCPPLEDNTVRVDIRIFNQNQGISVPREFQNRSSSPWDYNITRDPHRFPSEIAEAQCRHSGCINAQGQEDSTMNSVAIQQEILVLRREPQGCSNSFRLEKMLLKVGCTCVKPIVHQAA

T3: recombinant mouse IL-2 (R&D Systems 402-ML-020/CF) (mouse, UniProt P04351 21-169)
T3 construct: also called mIL-2
T3 sequence (looked up): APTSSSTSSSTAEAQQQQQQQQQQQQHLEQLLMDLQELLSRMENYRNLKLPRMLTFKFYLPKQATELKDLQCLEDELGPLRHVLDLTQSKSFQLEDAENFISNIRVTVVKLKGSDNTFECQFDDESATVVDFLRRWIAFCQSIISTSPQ

T4: recombinant mouse IL-17A (SEQ ID NO: 83) (mouse, UniProt Q62386 26-158)
T4 construct: also called mIL-17A; rmIL-17A
T4 sequence: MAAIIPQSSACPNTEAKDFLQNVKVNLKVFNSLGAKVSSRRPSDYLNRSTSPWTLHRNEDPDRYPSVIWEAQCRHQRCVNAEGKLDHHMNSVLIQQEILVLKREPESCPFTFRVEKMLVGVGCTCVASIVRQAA

T5: recombinant mouse IL-17F (R&D Systems Cat#2057-IL/CF) (mouse, UniProt Q7TNI7 29-161)
T5 construct: also called mIL-17F
T5 sequence (looked up): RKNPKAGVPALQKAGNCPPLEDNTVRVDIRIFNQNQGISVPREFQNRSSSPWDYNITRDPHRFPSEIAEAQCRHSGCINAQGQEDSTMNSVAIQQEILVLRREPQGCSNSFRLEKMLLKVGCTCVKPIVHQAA

T6: recombinant mouse IL-17A/F (R&D Systems Cat#5390-IL) (mouse, UniProt Q62386 26-158; Q7TNI7 29-161, limits assumed)
T6 construct: bought heterodimer; also called mIL-17A/F; rmIL-17A/F
T6 sequence (looked up) 1: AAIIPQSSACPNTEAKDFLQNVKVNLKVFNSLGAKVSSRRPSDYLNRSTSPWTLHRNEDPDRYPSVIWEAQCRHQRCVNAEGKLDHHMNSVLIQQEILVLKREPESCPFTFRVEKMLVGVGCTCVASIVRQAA
T6 sequence (looked up) 2: T5 sequence (looked up)

T7: recombinant mouse IL-23 (R&D Systems Cat#1887-ML) (mouse, UniProt Q9EQ14 22-196; P43432 23-335)
T7 construct: also called mIL-23
T7 sequence (looked up) 1: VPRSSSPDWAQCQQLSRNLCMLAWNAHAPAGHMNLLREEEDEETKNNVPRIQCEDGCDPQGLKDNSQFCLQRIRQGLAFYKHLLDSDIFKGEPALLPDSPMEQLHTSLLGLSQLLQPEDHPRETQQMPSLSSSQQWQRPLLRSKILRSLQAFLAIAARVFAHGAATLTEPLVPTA
T7 sequence (looked up) 2: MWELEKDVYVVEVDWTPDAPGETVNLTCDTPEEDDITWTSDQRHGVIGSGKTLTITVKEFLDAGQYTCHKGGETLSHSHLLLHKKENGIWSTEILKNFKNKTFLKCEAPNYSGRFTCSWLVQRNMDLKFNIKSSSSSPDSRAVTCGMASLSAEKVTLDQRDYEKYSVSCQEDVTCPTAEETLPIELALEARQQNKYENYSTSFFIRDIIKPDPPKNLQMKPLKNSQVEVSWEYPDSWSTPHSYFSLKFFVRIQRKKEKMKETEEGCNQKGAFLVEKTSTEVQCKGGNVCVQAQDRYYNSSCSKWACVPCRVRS

T8: recombinant mouse TNFα (R&D Systems Cat#410-MT) (mouse, UniProt P06804 80-235)
T8 construct: coated at 0.5 µg/ml; also called mTNFα
T8 sequence (looked up): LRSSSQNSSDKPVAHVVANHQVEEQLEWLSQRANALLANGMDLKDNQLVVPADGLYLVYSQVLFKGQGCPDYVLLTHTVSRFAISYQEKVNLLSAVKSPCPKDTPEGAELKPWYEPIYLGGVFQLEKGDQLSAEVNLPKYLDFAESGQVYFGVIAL

T9: recombinant mouse IL-18 (MBL Cat#B004-5) (mouse, UniProt P70380 36-192)
T9 construct: also called mIL-18
T9 sequence (looked up): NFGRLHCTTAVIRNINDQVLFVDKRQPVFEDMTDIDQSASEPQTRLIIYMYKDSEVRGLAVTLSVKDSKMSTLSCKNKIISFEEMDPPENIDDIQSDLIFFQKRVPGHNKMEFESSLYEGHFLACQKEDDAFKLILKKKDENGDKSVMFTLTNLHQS

T10: recombinant mouse IFN-γ (R&D Systems Cat#485-MT) (mouse, UniProt P01580 23-155)
T10 construct: also called mIFN-γ
T10 sequence (looked up): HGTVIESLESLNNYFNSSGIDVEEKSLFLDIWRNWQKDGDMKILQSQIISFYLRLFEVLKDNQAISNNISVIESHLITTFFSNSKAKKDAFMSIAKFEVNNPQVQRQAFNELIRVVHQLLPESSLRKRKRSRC

T11: recombinant mouse IL-1β (R&D Systems Cat#401-ML) (mouse, UniProt P10749 118-269)
T11 construct: also called mIL-1β
T11 sequence (looked up): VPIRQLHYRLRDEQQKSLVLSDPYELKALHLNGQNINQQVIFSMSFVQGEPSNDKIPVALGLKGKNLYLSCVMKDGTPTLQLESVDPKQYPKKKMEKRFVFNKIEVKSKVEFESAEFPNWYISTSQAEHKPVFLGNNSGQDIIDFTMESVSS

B1: XAB4 (antibody, human IgG1, kappa, V domains shown)
VH: EVQLVESGGDLVQPGGSLRLSCAASGFTFSSYWMSWVRQAPGKGLEWVANIKQDGSEKYYVDSVKGRFTISRDNAKNSLYLQMNSLRAEDTAVYYCARDRGSLYYWGQGTLVTVSS
VL: AIQLTQSPSSLSASVGDRVTITCRPSQGINWELAWYQQKPGKAPKLLIYDASSLEQGVPSRFSGSGSGTDFTLTISSLQPEDFATYYCQQFNSYPLTFGGGTKVEIKR
notes: also called MB435 N56Q
B2: XAB1 (antibody, human IgG1, kappa, V domains shown)
VH: B1 VH
VL: B1 VL with N30I, W31S, E32A, Q56N
notes: human IgG1/kappa monoclonal antibody; also called parental XAB1; XAB1 IgG

Assays:
[1] = target: T1, recombinant human IL-17E (R&D Systems …); assay: ELISA, coated antigen
Method: (§1) A titration of the antibodies of interest on different antigens was carried out.
(§2) Plates were then washed 4 times with PBS/0.05% Tween 20 (Sigma Cat# P7949)/0.02% NaN₃.
(§3) Plates were then washed 4 times with PBS/0.05% Tween 20/0.02% NaN₃. Then, an alkaline phosphatase-conjugated goat anti-human IgG antibody (Sigma Cat# A9544) was added to the wells that received test antibody at a dilution of 1/20000 (100 μl/well) for 2 h 30 min at RT. To the wells, that received mouse mAb, an alkaline phosphatase-conjugated goat anti-mouse IgG antibody (Sigma Cat# A7434) was added at a dilution of 1/10000 (100 μl/well) for 2 h 30 min at RT. An alkaline phosphatase conjugated mouse anti goat IgG antibody (Sigma Cat# A8062) was added to the goat antibodies at a dilution of 1/50000 (100 μl/well) for 2 h 30 min at RT. Plates were then washed 4 times and 100 μl of the substrate (p-nitrophenyl phosphate tablets; Sigma; 5 mg Cat#N9389; 20 mg Cat#. N2765) dissolved in diethanolamine buffer pH 9.8, to give a final concentration of 1 mg/ml, were added to each well.

[2] = target: T2, recombinant mouse IL-17F (SEQ ID NO: 84); assay: ELISA, coated antigen
Method: as §1, §2, §3

[3] = target: T3, recombinant mouse IL-2 (R&D Systems …); assay: ELISA, coated cytokine, Ab 10 µg/ml
Method: (§4) The antibodies of the disclosure were added at 10 μg/ml (100 μl/well) for 3 h at room temperature. […] They were added at 1 or 5 μg/ml, in PBS, 0.02% NaN₃ for 3 h at RT.
(§5) Plates were then washed 4 times with PBS/0.05% Tween 20/0.02% NaN₃. Then, an alkaline phosphatase-conjugated goat anti-human IgG antibody (Sigma Cat# A9544) was added to the wells with human antibodies at a dilution of 1/20000 (100 μl/well). An alkaline phosphatase-conjugated goat anti-mouse IgG antibody (Sigma Cat# A1047) was added to the wells with mouse antibodies at a dilution of 1/10000 (100 μl/well). An alkaline phosphatase-conjugated rabbit anti-goat IgG antibody (Sigma Cat# A7650) was added to the wells with goat antibodies at a dilution of 1/1000 (100 μl/well) and an alkaline phosphatase-conjugated rabbit anti rat-IgG antibody (Sigma Cat# A6066) was added to the wells with rat antibodies at a dilution of 1/20000 (100 μl/well).

[4] = target: T4, recombinant mouse IL-17A (SEQ ID NO: 83); assay: ELISA, coated cytokine, Ab 10 µg/ml
Method: as §4, §5

[5] = target: T5, recombinant mouse IL-17F (R&D Systems …); assay: ELISA, coated cytokine, Ab 10 µg/ml
Method: as §4, §5

[6] = target: T6, recombinant mouse IL-17A/F (R&D Systems …); assay: ELISA, coated cytokine, Ab 10 µg/ml
Method: as §4, §5

[7] = target: T7, recombinant mouse IL-23 (R&D Systems …); assay: ELISA, coated cytokine, Ab 10 µg/ml
Method: as §4, §5

[8] = target: T8, recombinant mouse TNFα (R&D Systems …); assay: ELISA, coated cytokine, Ab 10 µg/ml
Method: as §4, §5

[9] = target: T9, recombinant mouse IL-18 (MBL Cat#B004-5); assay: ELISA, coated cytokine, Ab 10 µg/ml
Method: as §4, §5

[10] = target: T10, recombinant mouse IFN-γ (R&D Systems …); assay: ELISA, coated cytokine, Ab 10 µg/ml
Method: as §4, §5

[11] = target: T11, recombinant mouse IL-1β (R&D Systems …); assay: ELISA, coated cytokine, Ab 10 µg/ml
Method: as §4, §5

| Binder | binding result [1] | binding result [2] | O.D. [3] | O.D. [4] | O.D. [5] | O.D. [6] | O.D. [7] | O.D. [8] | O.D. [9] | O.D. [10] | O.D. [11] |
| --- | --- | --- | --- | --- | --- | --- | --- | --- | --- | --- | --- |
| B1 | no binding (tested: 1 µg/ml) | no binding (tested: 1 µg/ml) | 0.024 O.D. | 3.29 O.D. | 0.034 O.D. | 3.34 O.D. | 0.058 O.D. | 0.065 O.D. | 0.054 O.D. | 0.038 O.D. | 0.022 O.D. |
| B2 | no binding (tested: 1 µg/ml) | no binding (tested: 1 µg/ml) | 0.022 O.D. | 2.97 O.D. | -0.058 O.D. | 3.17 O.D. | 0.009 O.D. | 0.025 O.D. | 0.022 O.D. | 0.048 O.D. | 0.007 O.D. |
